13 molecules from paper PMC10786891, “Massively parallel profiling of RNA-targeting CRISPR-Cas13d” can be followed below.

The chains are these.
B1: target 1 MT 5'PFS GCA 3'PFS UAG (mixed)
RNA 1: CACCCGUGCAAAAAUGCAGGGGUCUAAAACUGAGCGGAUAACCUCUCUAUGG
RNA 2: GGGAAUGGAUCCACAUCUACGAAUUCGCACCAUAGAGAGGUUAUCCGCUCAUAGAGAUCGGAAGAGCACACGU
B2: target 1 MT 5'PFS GUA 3'PFS UAA (mixed)
RNA 1: CACCCGUGCAAAAAUGCAGGGGUCUAAAACUGAGCGGAUAACCUCUCUAUGG
RNA 2: GGGAAUGGAUCCACAUCUACGAAUUCGUACCAUAGAGAGGUUAUCCGCUCAUAAAGAUCGGAAGAGCACACGU
B3: target 1 MT 5'PFS CUA 3'PFS UGA (mixed)
RNA 1: CACCCGUGCAAAAAUGCAGGGGUCUAAAACUGAGCGGAUAACCUCUCUAUGG
RNA 2: GGGAAUGGAUCCACAUCUACGAAUUCCUACCAUAGAGAGGUUAUCCGCUCAUGAAGAUCGGAAGAGCACACGU
B4: target 1 MT 5'PFS UUG 3'PFS AUG (mixed)
RNA 1: CACCCGUGCAAAAAUGCAGGGGUCUAAAACUGAGCGGAUAACCUCUCUAUGG
RNA 2: GGGAAUGGAUCCACAUCUACGAAUUCUUGCCAUAGAGAGGUUAUCCGCUCAAUGAGAUCGGAAGAGCACACGU
B5: target 1 MT 5'PFS GUA 3'PFS UAC (mixed)
RNA 1: CACCCGUGCAAAAAUGCAGGGGUCUAAAACUGAGCGGAUAACCUCUCUAUGG
RNA 2: GGGAAUGGAUCCACAUCUACGAAUUCGUACCAUAGAGAGGUUAUCCGCUCAUACAGAUCGGAAGAGCACACGU
B6: target 1 MT 5'PFS UUG 3'PFS AUC (mixed)
RNA 1: CACCCGUGCAAAAAUGCAGGGGUCUAAAACUGAGCGGAUAACCUCUCUAUGG
RNA 2: GGGAAUGGAUCCACAUCUACGAAUUCUUGCCAUAGAGAGGUUAUCCGCUCAAUCAGAUCGGAAGAGCACACGU
B7: target 1 MT 5'PFS UUG 3'PFS AUA (mixed)
RNA 1: CACCCGUGCAAAAAUGCAGGGGUCUAAAACUGAGCGGAUAACCUCUCUAUGG
RNA 2: GGGAAUGGAUCCACAUCUACGAAUUCUUGCCAUAGAGAGGUUAUCCGCUCAAUAAGAUCGGAAGAGCACACGU
B8: target 1 MT 5'PFS GUA 3'PFS UAG (mixed)
RNA 1: CACCCGUGCAAAAAUGCAGGGGUCUAAAACUGAGCGGAUAACCUCUCUAUGG
RNA 2: GGGAAUGGAUCCACAUCUACGAAUUCGUACCAUAGAGAGGUUAUCCGCUCAUAGAGAUCGGAAGAGCACACGU
B9: target 1 G5C,A16G (mixed)
RNA 1: CACCCGUGCAAAAAUGCAGGGGUCUAAAACUGAGCGGAUAACCUCUCUAUGG
RNA 2: GGGAAUGGAUCCACAUCUACGAAUUCGUACCAUAGGGAGGUUAUCCCCUCACCGAGAUCGGAAGAGCACACGU
B10: target 1 insC 3' of 18,insC 3' of 3 (mixed)
RNA 1: CACCCGUGCAAAAAUGCAGGGGUCUAAAACUGAGCGGAUAACCUCUCUAUGG
RNA 2: GGGAAUGGAUCCACAUCUACGAAUUCGUACCAUACGAGAGGUUAUCCGCUCCACCGAGAUCGGAAGAGCACACGU
B11: target 1 MT 5'PFS CUA 3'PFS CGU (mixed)
RNA 1: CACCCGUGCAAAAAUGCAGGGGUCUAAAACUGAGCGGAUAACCUCUCUAUGG
RNA 2: GGGAAUGGAUCCACAUCUACGAAUUCCUACCAUAGAGAGGUUAUCCGCUCACGUAGAUCGGAAGAGCACACGU
B12: target 1 MT 5'PFS CUA 3'PFS AAG (mixed)
RNA 1: CACCCGUGCAAAAAUGCAGGGGUCUAAAACUGAGCGGAUAACCUCUCUAUGG
RNA 2: GGGAAUGGAUCCACAUCUACGAAUUCCUACCAUAGAGAGGUUAUCCGCUCAAAGAGAUCGGAAGAGCACACGU
B13: target 1 MT 5'PFS GUA 3'PFS UAU (mixed)
RNA 1: CACCCGUGCAAAAAUGCAGGGGUCUAAAACUGAGCGGAUAACCUCUCUAUGG
RNA 2: GGGAAUGGAUCCACAUCUACGAAUUCGUACCAUAGAGAGGUUAUCCGCUCAUAUAGAUCGGAAGAGCACACGU

This data set addresses T1, EsCas13d, nuclease-dead (Eubacterium siraeum, UniProt B0MS50, R295A;H300A;R849A;H854A).
T1 sequence: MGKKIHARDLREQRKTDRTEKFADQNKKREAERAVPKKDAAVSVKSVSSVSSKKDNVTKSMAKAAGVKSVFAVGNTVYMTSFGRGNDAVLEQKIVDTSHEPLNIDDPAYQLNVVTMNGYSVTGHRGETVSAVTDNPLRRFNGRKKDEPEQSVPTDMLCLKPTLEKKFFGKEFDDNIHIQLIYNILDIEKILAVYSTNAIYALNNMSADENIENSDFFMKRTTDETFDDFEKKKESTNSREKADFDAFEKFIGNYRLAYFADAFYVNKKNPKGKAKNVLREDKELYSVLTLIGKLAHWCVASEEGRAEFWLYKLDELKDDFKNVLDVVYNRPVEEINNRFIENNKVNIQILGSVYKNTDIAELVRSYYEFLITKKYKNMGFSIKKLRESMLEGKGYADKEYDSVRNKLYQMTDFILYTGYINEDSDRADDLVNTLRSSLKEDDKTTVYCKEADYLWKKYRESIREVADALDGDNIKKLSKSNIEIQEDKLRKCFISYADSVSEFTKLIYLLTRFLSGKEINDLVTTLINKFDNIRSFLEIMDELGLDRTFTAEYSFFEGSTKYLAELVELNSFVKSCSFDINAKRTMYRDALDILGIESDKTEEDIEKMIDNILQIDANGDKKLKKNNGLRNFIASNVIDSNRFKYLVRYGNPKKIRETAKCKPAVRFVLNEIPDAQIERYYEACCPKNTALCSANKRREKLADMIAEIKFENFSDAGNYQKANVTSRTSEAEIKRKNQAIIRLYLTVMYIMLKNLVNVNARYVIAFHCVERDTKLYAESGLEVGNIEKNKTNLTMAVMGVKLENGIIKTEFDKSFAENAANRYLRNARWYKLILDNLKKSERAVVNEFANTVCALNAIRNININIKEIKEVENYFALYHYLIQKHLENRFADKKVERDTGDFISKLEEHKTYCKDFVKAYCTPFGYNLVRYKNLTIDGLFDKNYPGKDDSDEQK
Description: crRNA (strand 1, pre-loaded); Mg2+; 40 mM Tris-HCl pH 7.5, 150 mM NaCl, 6 mM MgCl2, 1 mM DTT, 0.1% Tween-20, 0.2 mg/ml BSA; 25 C; 10 min per concentration, then washed. Particulars: tags: His6-TwinStrep-SUMO cleaved; N-terminal SNAP kept (SNAP-Surface 488); label: 3' end held by stalled T7 RNA polymerase.
B1: the Kd (as a rule, the equilibrium constant for the complex coming apart) was determined as 19.4 ± 4.95 nM.

On to B2, for which the Kd amounted to 13.8 ± 1.35 nM.

For the molecule B3, binding was characterised by a dissociation constant (Kd) of 22 ± 7.5 nM.

B4: the Kd turned out to be 83 ± 35 nM.

Turning to B5, the affinity, expressed as Kd, was 13.2 ± 1.25 nM.

Regarding B6, the Kd was found to be 37.5 ± 13 nM.

B7 had a Kd of 58.5 ± 20 nM.

In turn, B8 gave a Kd of 13.7 ± 0.9 nM.

As for B9, the affinity, expressed as Kd, was 65 ± 11 nM.

B10 registered a dissociation constant Kd of 32 ± 4 nM.

Molecule B11 registered a Kd of 17 ± 6 nM.

The molecule B12 had a Kd of 11.4 ± 4 nM.

In turn, B13 gave an equilibrium dissociation constant (Kd) of 9.75 ± 0.7 nM.
